# Source: IntAct's records for PubMed 31515488
# B1: Protein FAM167A (Homo sapiens), Q96KS9 (parent)
# chain: MSVPQIHVEEVGAEEGAGAAAPPDDHLRSLKALTEKLRLETRRPSYLEWQARLEEHTWPFPRPAAEPQASLEEGERGGQEPLLPLREAGQHPPSARSASQGARPLSTGKLEGFQSIDEAIAWLRKELTEMRLQDQQLARQLMRLRGDINKLKIEHTCRLHRRMLNDATYELEERDELADLFCDSPLASSFSLSTPLKLIGVTKMNINSRRFSLC
# partner: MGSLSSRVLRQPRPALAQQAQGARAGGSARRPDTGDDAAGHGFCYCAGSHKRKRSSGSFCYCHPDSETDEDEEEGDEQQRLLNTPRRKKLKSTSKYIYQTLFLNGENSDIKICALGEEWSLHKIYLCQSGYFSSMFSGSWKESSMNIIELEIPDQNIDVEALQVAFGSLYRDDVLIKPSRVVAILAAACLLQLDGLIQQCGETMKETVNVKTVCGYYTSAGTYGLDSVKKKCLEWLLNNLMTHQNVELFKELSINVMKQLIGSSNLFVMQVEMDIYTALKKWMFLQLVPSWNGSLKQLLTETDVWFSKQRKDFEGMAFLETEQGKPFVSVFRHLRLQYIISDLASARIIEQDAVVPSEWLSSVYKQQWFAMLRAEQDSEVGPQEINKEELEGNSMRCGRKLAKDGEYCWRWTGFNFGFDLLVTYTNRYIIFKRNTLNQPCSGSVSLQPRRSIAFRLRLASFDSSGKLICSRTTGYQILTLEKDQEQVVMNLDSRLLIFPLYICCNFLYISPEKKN
# B2: Keratin-associated protein 26-1 (Homo sapiens), Q6PEX3 (parent)
# chain: MSCPNYCSGNSNSGSLRTSRHIPLTSIDLCPTSVSCGDVLYLPTSSQDHTWVTDNCQETCGEPTSCQPVHCETGNLETSCGSSTAYYVPRPCQGSSFLPASFFSSSCLPVSCRPQRYVSSGCRPLRPLLNSYQPIGDCVPNAYRPQFCLSKSCQPQNLLTSGCQPSSCLAYRPQSLHVVSSSLRPLGPLFSGCQPLTHVFSTCRPSCSGL
# partner: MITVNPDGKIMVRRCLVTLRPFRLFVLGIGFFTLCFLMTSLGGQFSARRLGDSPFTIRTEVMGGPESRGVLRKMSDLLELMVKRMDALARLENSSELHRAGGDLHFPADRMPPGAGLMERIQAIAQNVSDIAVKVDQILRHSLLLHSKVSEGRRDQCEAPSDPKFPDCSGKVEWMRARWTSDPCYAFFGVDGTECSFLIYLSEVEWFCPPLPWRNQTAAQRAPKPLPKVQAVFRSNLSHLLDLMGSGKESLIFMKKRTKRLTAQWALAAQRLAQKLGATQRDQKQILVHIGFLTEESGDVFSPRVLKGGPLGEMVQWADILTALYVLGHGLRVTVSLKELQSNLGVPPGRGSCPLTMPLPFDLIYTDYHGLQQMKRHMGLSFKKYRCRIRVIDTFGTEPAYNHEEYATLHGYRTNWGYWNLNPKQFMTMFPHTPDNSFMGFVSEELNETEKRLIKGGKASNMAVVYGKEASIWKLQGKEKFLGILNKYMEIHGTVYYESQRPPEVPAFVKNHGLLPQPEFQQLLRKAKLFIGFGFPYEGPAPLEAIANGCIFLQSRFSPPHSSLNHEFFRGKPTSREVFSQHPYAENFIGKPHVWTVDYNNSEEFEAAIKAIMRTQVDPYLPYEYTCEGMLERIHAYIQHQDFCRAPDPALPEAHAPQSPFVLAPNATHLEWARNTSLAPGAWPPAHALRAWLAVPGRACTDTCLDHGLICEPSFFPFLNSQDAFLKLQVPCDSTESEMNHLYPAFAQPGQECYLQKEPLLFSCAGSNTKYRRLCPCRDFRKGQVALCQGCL
# B3: Splicing factor 45 (Homo sapiens), Q96I25 (parent)
# chain: MSLYDDLGVETSDSKTEGWSKNFKLLQSQLQVKKAALTQAKSQRTKQSTVLAPVIDLKRGGSSDDRQIVDTPPHVAAGLKDPVPSGFSAGEVLIPLADEYDPMFPNDYEKVVKRQREERQRQRELERQKEIEEREKRRKDRHEASGFARRPDPDSDEDEDYERERRKRSMGGAAIAPPTSLVEKDKELPRDFPYEEDSRPRSQSSKAAIPPPVYEEQDRPRSPTGPSNSFLANMGGTVAHKIMQKYGFREGQGLGKHEQGLSTALSVEKTSKRGGKIIVGDATEKDASKKSDSNPLTEILKCPTKVVLLRNMVGAGEVDEDLEVETKEECEKYGKVGKCVIFEIPGAPDDEAVRIFLEFERVESAIKAVVDLNGRYFGGRVVKACFYNLDKFRVLDLAEQV
# partner: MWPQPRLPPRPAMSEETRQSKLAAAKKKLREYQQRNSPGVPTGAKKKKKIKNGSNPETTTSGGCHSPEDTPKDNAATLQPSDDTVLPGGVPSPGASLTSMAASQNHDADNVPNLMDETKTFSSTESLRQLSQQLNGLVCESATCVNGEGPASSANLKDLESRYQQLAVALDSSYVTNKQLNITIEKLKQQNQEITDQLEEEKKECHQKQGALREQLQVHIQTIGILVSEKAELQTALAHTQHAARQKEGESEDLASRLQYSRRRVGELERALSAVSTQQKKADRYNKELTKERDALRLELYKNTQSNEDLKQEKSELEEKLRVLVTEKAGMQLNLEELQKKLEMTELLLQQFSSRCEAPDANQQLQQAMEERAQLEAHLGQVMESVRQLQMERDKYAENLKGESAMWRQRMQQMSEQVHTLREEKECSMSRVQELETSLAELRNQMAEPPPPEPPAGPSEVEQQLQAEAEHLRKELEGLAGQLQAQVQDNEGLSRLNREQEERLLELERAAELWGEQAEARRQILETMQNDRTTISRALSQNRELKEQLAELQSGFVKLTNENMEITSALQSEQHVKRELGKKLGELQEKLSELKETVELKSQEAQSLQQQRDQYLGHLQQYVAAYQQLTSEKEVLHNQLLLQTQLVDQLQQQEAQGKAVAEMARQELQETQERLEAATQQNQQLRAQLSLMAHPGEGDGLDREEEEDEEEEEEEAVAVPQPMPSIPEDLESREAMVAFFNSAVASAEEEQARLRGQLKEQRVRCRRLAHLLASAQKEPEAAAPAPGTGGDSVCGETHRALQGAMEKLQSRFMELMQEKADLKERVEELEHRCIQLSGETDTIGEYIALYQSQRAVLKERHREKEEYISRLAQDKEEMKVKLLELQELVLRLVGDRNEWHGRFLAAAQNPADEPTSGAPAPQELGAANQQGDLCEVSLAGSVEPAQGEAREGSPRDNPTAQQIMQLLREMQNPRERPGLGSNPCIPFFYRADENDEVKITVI
# B4: Phospholipid scramblase 4 (Homo sapiens), Q9NRQ2 (parent)
# chain: MSGVVPTAPEQPAGEMENQTKPPDPRPDAPPEYNSHFLPGPPGTAVPPPTGYPGGLPMGYYSPQQPSTFPLYQPVGGIHPVRYQPGKYPMPNQSVPITWMPGPTPMANCPPGLEYLVQLDNIHVLQHFEPLEMMTCFETNNRYDIKNNSDQMVYIVTEDTDDFTRNAYRTLRPFVLRVTDCMGREIMTMQRPFRCTCCCFCCPSARQELEVQCPPGVTIGFVAEHWNLCRAVYSIQNEKKENVMRVRGPCSTYGCGSDSVFEVKSLDGISNIGSIIRKWNGLLSAMADADHFDIHFPLDLDVKMKAMIFGACFLIDFMYFERSPPQRSR
# Variants of: B1
# Conditions: with gmcl1_human GMCL1, Q96IK5
row,Variant,effect of a mutation on the interaction
1,S99T,with no effect

# Variants of: B2
# Conditions: with mgt5b_human MGAT5B
row,Variant,effect of a mutation on the interaction
1,S26Y,with no effect

# Variants of: B3
# Conditions: with goga2_human GOLGA2, Q08379
row,Variant,effect of a mutation on the interaction
1,T224I,with no effect

# Variants of: B4
# Conditions: with pls1_human PLSCR1, O15162
# Chain of pls1_human PLSCR1, O15162 (O15162 whole entry): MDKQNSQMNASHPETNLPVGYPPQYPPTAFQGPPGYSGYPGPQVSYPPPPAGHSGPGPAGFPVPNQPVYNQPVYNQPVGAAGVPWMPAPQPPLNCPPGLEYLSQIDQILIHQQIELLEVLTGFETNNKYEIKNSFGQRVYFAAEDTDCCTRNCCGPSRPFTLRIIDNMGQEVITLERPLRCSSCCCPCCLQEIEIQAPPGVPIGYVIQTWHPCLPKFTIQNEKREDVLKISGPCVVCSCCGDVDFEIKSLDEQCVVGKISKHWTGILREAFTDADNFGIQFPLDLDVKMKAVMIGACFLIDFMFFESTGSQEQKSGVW
row,Variant,effect of a mutation on the interaction
1,N34S,with no effect
2,A107S,with no effect
3,I155V,with no effect

# Variants of: B4
# Conditions: with mtus2_human MTUS2, Q5JR59
# Chain of mtus2_human MTUS2, Q5JR59 (Q5JR59 whole entry): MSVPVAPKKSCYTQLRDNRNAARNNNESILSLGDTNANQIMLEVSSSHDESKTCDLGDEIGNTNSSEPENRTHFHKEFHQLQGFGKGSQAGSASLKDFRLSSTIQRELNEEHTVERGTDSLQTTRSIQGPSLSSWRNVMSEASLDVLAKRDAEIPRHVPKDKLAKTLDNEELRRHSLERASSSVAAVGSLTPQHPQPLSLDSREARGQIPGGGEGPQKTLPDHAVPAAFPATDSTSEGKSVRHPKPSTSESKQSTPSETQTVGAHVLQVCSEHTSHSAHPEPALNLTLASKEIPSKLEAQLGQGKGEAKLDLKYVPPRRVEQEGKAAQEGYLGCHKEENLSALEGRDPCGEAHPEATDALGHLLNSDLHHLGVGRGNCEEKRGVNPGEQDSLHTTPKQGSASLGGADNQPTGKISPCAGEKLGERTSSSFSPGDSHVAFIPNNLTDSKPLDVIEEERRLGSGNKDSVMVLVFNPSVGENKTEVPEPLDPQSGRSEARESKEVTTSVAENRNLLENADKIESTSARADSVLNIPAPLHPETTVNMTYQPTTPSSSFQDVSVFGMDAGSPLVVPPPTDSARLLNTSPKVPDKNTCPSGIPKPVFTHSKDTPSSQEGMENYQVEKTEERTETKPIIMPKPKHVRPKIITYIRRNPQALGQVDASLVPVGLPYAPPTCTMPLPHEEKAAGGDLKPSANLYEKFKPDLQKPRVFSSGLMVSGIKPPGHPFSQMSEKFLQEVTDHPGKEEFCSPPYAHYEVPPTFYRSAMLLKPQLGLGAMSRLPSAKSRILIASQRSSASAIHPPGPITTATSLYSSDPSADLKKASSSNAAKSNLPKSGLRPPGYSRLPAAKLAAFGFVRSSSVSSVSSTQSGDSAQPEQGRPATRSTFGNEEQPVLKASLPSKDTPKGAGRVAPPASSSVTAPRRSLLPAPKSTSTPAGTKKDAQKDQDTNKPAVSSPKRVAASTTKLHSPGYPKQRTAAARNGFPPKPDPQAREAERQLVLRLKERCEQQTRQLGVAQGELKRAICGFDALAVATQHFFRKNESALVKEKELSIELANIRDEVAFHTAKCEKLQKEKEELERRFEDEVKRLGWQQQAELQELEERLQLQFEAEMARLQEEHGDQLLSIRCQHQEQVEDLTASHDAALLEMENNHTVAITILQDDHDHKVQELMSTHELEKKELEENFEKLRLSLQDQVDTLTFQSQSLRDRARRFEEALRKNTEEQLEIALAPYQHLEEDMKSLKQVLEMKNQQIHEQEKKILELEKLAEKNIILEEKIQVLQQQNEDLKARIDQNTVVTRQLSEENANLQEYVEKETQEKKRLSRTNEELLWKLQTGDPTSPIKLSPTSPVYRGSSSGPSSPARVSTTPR
row,Variant,effect of a mutation on the interaction
1,N34S,with no effect
2,A107S,with no effect
3,I155V,with no effect

# Variants of: B4
# Conditions: with nt2na_human NOTCH2NLA
row,Variant,effect of a mutation on the interaction
1,N34S,with no effect
2,A107S,with no effect
3,I155V,with no effect
